T1: BBP/Mud2 dimer (S. cerevisiae, UniProt Q12186 1-476; P36084 1-527)
T1 sequence (looked up) 1: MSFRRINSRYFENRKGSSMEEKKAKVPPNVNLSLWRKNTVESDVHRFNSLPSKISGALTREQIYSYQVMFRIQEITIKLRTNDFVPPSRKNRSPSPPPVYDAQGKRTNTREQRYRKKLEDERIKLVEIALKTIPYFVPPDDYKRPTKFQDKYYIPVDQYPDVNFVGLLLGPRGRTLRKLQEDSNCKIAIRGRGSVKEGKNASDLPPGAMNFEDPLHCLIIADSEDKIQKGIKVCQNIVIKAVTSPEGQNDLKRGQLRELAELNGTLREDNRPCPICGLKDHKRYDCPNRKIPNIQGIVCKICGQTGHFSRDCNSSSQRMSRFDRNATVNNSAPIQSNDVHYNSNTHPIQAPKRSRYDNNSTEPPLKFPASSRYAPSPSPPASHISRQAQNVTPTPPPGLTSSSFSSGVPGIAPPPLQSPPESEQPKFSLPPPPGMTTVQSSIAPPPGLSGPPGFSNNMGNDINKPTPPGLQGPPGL
T1 sequence (looked up) 2: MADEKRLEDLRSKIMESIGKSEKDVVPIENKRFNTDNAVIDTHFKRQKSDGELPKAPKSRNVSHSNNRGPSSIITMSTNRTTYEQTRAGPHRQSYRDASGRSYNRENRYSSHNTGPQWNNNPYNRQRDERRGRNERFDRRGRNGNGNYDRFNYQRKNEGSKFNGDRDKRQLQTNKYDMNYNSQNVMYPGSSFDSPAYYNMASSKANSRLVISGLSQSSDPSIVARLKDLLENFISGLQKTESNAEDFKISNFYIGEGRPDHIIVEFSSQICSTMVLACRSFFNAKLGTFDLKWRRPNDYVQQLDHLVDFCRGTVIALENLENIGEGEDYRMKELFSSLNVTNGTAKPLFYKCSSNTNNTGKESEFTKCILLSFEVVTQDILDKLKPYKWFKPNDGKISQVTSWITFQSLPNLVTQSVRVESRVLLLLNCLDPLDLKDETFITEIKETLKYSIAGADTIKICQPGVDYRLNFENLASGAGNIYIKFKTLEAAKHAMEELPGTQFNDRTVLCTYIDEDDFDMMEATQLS

B1: Snu71 (in the purified U1 snRNP of the Ubc4 E complex) (natural protein, S. cerevisiae, UniProt P53207 1-620, looked up)
chain: MRDIVFVSPQLYLSSQEGWKSDSAKSGFIPILKNDLQRFQDSLKHIVDARNSLSETLLNSNDDGSIHNSDQNTGLNKDKEASIADNNSANKCATSSSRYQELKQFLPISLDQQIHTVSLQGVSSSFSRGQIESLLDHCLNLALTETQSNSALKVEAWSSFSSFLDTQDIFIRFSKVDEDEAFVNTLNYCKALFAFIRKLHEDFKIELHLDLNTKEYVEDRTGTIPSVKPEKASEFYSVFKNIEDQTDERNSKKEQLDDSSTQYKVDTNTLSDLPSDALDQLCKDIIEFRTKVVSIEKEKKMKSTYEESRRQRHQMQKVFDQIRKNHSGAKGSANTEEEDTNMEDEDEEDDTEDDLALEKRKEERDLEESNRRYEDMLHQLHSNTEPKIKSIRADIMSAENYEEHLEKNRSLYLKELLHLANDVHYDHHRSFKEQEERRDEEDRAKNGNAKELAPIQLSDGKAISAGKAAAITLPEGTVKSENYNADKNVSESSEHVKIKFDFKKAIDHSVESSSEDEGYRESELPPTKPSERSAAEDRLPFTADELNIRLTNLKESRYVDELVREFLGVYEDELVEYILENIRVNQSKQALLNELRETFDEDGETIADRLWSRKEFRLGT
B2: Prp40 (in the purified U1 snRNP of the Ubc4 E complex) (natural protein)
chain: MSIWKEAKDASGRIYYYNTLTKKSTWEKPKELISQEELLLRENGWKAAKTADGKVYYYNPTTRETSWTIPAFEKKVEPIAEQKHDTVSHAQVNGNRIALTAGEKQEPGRTINEEESQYANNSKLLNVRRRTKEEAEKEFITMLKENQVDSTWSFSRIISELGTRDPRYWMVDDDPLWKKEMFEKYLSNRSADQLLKEHNETSKFKEAFQKMLQNNSHIKYYTRWPTAKRLIADEPIYKHSVVNEKTKRQTFQDYIDTLIDTQKESKKKLKTQALKELREYLNGIITTSSSETFITWQQLLNHYVFDKSKRYMANRHFKVLTHEDVLNEYLKIVNTIENDLQNKLNELRLRNYTRDRIARDNFKSLLREVPIKIKANTRWSDIYPHIKSDPRFLHMLGRNGSSCLDLFLDFVDEQRMYIFAQRSIAQQTLIDQNFEWNDADSDEITKQNIEKVLENDRKFDKVDKEDISLIVDGLIKQRNEKIQQKLQNERRILEQKKHYFWLLLQRTYTKTGKPKPSTWDLASKELGESLEYKALGDEDNIRRQIFEDFKPESSAPTAESATANLTLTASKKRHLTPAVELDY

How the values were obtained:
Test in all cases: cross-linking
[1] = molecular target: B2
[2] = molecular target: T1, BBP/Mud2 dimer
[3] = molecular target: B1

Row | binding result [1] | binding result [2] | binding result [3] | Binder
1 | binds |  |  | U1-70K (in the purified U1 snRNP of the Ubc4 E complex) (natural protein, S. cerevisiae) MNYNLSKYPDDVSRLFKPRPPLSYKRPTDYPYAKRQTNPNITGVANLLSTSLKHYMEEFPEGSPNNHLQRYEDIKLSKIKNAQLLDRRLQNWNPNVDPHIKDTDPYRTIFIGRLPYDLDEIELQKYFVKFGEIEKIRIVKDKITQKSKGYAFIVFKDPISSKMAFKEIGVHRGIQIKDRICIVDIERGRTVKYFKPRRLGGGLGGRGYSNRDSRLPGRFASASTSNPAERNYAPRLPRRETSSSAYSADRYGSSTLDARYRGNRPLLSAATPTAAVTSVYKSRNSRTRESQPAPKEAPDY
2 |  | binds |  | B1
3 | binds | binds |  | Luc7 (in the purified U1 snRNP of the Ubc4 E complex) (natural protein, S. cerevisiae) MSTMSTPAAEQRKLVEQLMGRDFSFRHNRYSHQKRDLGLHDPKICKSYLVGECPYDLFQGTKQSLGKCPQMHLTKHKIQYEREVKQGKTFPEFEREYLAILSRFVNECNGQISVALQNLKHTAEERMKIQQVTEELDVLDVRIGLMGQEIDSLIRADEVSMGMLQSVKLQELISKRKEVAKRVRNITENVGQSAQQKLQVCEVCGAYLSRLDTDRRLADHFLGKIHLGYVKMREDYDRLMKNNRTTNASKTATTLPGRRFV
4 |  | binds |  | Snu56 (in the purified U1 snRNP of the Ubc4 E complex) (natural protein, S. cerevisiae) MRPRRRGLAYHHTKPKGQLSQGHYPTTSNDGQRRKVGNSEAFQSFDIWKNLDRIRSTKKNAGQFIKGSLLILPMRTEDKQQFDECMDELHKYISKDILRCYPQKEQKDEGMLFYIVLKDFNILDSCFVLSVLLAFQKRLWMAPSEKSYFRVPKNINLTGSFYLPKNIETGRGHIITSYRREQPSSSIVEVGFNVVPDFQQFQVKACHVSKFMNELSNFFSQVEFGKCEANVINYFKREYNRTYSQISLALYELPLIGDGLFDIKSYISKTRPIIETSKAQMIKHISEMKAYNEISGLQGDQFPRQQRPLSNSPSSNSISSSQTIEAGATSYQTQPQRHAVNKPSNVLNSSNRHSGPKTFEDGRYSEGNKPGFMTQDEIKQHCIGTIKASMDAVKKKSSYQILKTYVRCPRQNYIDIVYQNLNDLRSKTNCNIVVLNLNNLHESQMWLESLNTTNYTIFAQAPHPSTIRVISIGGVGEYIVKALELILNILEH
5 |  | binds | binds | B2

Reference: paper PMC6939996 (Nature, 2019)
